Assay: yeast display, Sf9 membrane polyspecificity reagent, FACS + sequencing; frameworks hold sequencing errors
How it was run: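 A nanobody's polyreactivity label depends on the gate it was sorted from. Yeast display cells were stained with 10% biotinylated, detergent-solubilized Sf9 membrane reagent for 1 hour at 4 °C, enriched on streptavidin microbeads and sorted by FACS. The low and high (top ~1%) gates were set on anti-HA fluorescence for expression and streptavidin fluorescence for reagent binding.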

Sequence: QVQLVESGGGLVQAGGSLRLSCAASGRIYGNAMGWYRQAPGKERELDAAISFSVSSTNYADSVKGRFTISRDNAKNTVYLQMNSLKPEDTAVYYCAADWIGPTYPEMYYWGQGTQVTVSS
- polyreactivity (PSR sort gate): low polyreactivity

Sequence: QVQLVESGGGLVQAGGSLRLTCASSGRILVSYAIGWYRQAPGKERELVAAISRSGGSTYYADSVKGRFTISRDIAKNTVYLQMNSLKTEDTAVYYCNVYRFSRYDYWGQGTKVTVSS
- polyreactivity (PSR sort gate): high polyreactivity

Sequence: QVQLVESVGGLVQAGGSLRLSCAASGNIFYSYDMGWYRQAPGKERELVATISYRGTSTNYADSVKGRFTISRDNAKNTVYLQMNSLKPEDTAVYYCASDRGSHFARGSAYDYWGQGTQVTVSS
- polyreactivity (PSR sort gate): low polyreactivity

Sequence: QVQLVESGGGLVQAGGSLRLSCAASGSTFYRNAMAWYRQAPGKERELVAAISSTGGSTYYADSVKGRFTISRDNAKNTVYLQMNSLKPEDTAVYYCAVDPGLTKGFGYWGQGTQVTVSS
- polyreactivity (PSR sort gate): low polyreactivity

Sequence: QVQLVESGGGLVQAGGSLRLSCAASGNIFSANAMVWDRQAPGKEREFVAAISSTGGSTYYADSVKGRFTISRDNAKNTVYLQMNSLIPEDTAVYYCAAYIRRYLHYDYWGQGSQVTVSS
- polyreactivity (PSR sort gate): high polyreactivity

Sequence: QVQLVESGGGLVQAGGSLRLSCAASGRISLSNAMGWYRQAPGKEREFVAAITKRSDRTYYADSVKGRFTISRDNAKNTVYLQMNSLKPEDTAVYYCAAKPLFGTRDDYWGQGTHVTVSS
- polyreactivity (PSR sort gate): low polyreactivity

Sequence: QLQLVESGGGLVQAGGSIRLSCAASGSIFYRYAKGWNRQAPGKESELVAAISSRGGSKYYADSVKARFTISRDNAKNTVYLQMNSLKPEDTAVYYCAARSGGSGGTYGYWGQGPQVTVSS
- polyreactivity (PSR sort gate): high polyreactivity

Sequence: QVQLVESGGGLVQAGGSLRLSCAASGRTFDGYAMGWYRQAPGKERELVASINGGGSTNYADSVKGRFTISRDNAKNTVYLQMNSLKPEDTAVYYCAAESKGTWHYLYTSPHYYWGQGTQVTVSS
- polyreactivity (PSR sort gate): low polyreactivity

Sequence: QVQLVESGGGLVQAGGSLRLSCAASGYTFVDNAMGWYRQAPGKERELVAAINWDGASTYADSVKGRFTISRDNAKNTVYLQMNSLKPEDTAVYYCTASGKDIFNYVYQGYDYWGQGTQVTVSS
- polyreactivity (PSR sort gate): low polyreactivity

Sequence: QVQLVESGGGLVQAGGSLRLRCAASGGTFSGYTMGWYRQAPGKERELVAAINWSGGRTYYADSVKGRFTISRDNAKNTVYLQMNSLKPEDTAVYYCNKYGLYYREYDYWGQGTQVTVSS
- polyreactivity (PSR sort gate): high polyreactivity

Sequence: QVQLVESGGGLVQAGGSHRLSSAASGSTFAKNAMGWYRQARGKESELVATISRGGSTNYADSVKGRFTISRDNAKNTVYLQMNSLKPEDTAVYYCNADRVRTAVYSYVYAYGIMNYSGQGTQVTVSS
- polyreactivity (PSR sort gate): low polyreactivity

Sequence: QVQLVESGGGLVQAGGSLRLSCAASGFIFAGYTMGWSRPAHGKERELVAAIRSSGGRTYYADSVKGRFTISRDNAKNTVYLQMYSMKPEDTAVDYCNAVVDRLIFWQFDYWGQGTQVTVSS
- polyreactivity (PSR sort gate): high polyreactivity

Sequence: QVQLEESGGGLFQAGGSLRLSCAASGSTITRYAMGCYRQAPGKEREIVAVISRSGGSTYYADSVKGLFTISRDNAKNTVYLQINSLKPEDTAVYYCAAKYYGGRRSPYSYGYWGQGTQVTVSS
- polyreactivity (PSR sort gate): high polyreactivity

Sequence: QVQLVESGGGLVQAGGSLRLSCAASGGTVTYNAMGWYRQAPGKERELVAAITNGGGSTYYADSVKGRFTISRDYAKNTVYLQMNSLKPEDTAVYYCAARWWYYYTEYDYWGQGTQVTVSS
- polyreactivity (PSR sort gate): low polyreactivity

Sequence: QVQLVESGGGLVQAGGSLRLSCAACGRPFTLYAMGWYRQAPGKERELVASITSGTRTYYADSVKGRFTISRDNAKNTVYLQMNSLKPEDTAVYYCAKEGYRRTLHRLYDYWGEGTQVTVSS
- polyreactivity (PSR sort gate): low polyreactivity

Sequence: QVQLVESGGGLVQAGGSLRLSCAASGSIFKYYTMGWYRPAPGKERELVAAITWRGGRTYYADSVKGRFTISRDNAKNTVYLQMNSLKPEDTAVYYCNTASWGFASYYYTYNYWGQGTQVTVSS
- polyreactivity (PSR sort gate): high polyreactivity

Sequence: QVQLVESGGGLVQAGGSLRLSCAASGSTFIPNAMGWYRQAPGKERELVAAISTGGSTNYADSVKGRFTISRDNAKNTVYLQMNSLKPEDTAVYYCNDRRGYFNPGRRFYYWGQGTQVTVSS
- polyreactivity (PSR sort gate): low polyreactivity

Sequence: QVQLVESGGGLVQAGGSLRLSCAASGSTFYAYAMGWYRQAPGKERELVAVITSSGSTYYADSVKGRFTISRDNAKNTVYLQMNSLKPEDTAVYYCAAKRLSQSRRTQFRTRYPPMYYWGQGTQVTVSS
- polyreactivity (PSR sort gate): high polyreactivity

Sequence: QVQLVESGGGLVQAGGSLRLSCAASGGTFYAYAMGWYRQAPGKERELVAAITRSGGRPYYADSVKGRVTISRDNAKNTVYLQMNSLKPEDTEVYYCAADPHHYSGLDYWGQGTHVTVSS
- polyreactivity (PSR sort gate): low polyreactivity

Sequence: QVQLVESGGGLVQAGGSLRLSCAASGSIFGTNAMGWYRQAPGKERELLAAISLSTGSTYYADSVKGRITISRDYAKNTVYLQMNSLKPEDTAVYYCAVRHRYTRAYWGRDYWGQGTQVTVSS
- polyreactivity (PSR sort gate): low polyreactivity

Sequence: QVQLVESGGGLVQAGGSLRLTCAASGFTFNRYTMGWYRQAPGKERELVAAITRSGGSTYYADSVKGRFTISRDNAKNTVDLQMNSLKPEDTAVYYCAAPSYLVAGYGYWGQGTQVTLSS
- polyreactivity (PSR sort gate): high polyreactivity

Sequence: QVQLVESAGCLVQAGASLRLSCAASGGTFRLYAMGWSRQAPGKERELVAAITGSSGGTYYADSVKGRFTISRDNAKNTVYLQMNSLKPEDTAVYYCAASSSYWGQGTQVTVSS
- polyreactivity (PSR sort gate): low polyreactivity

Sequence: QVQLVESGGGLVQAGCSLRLSCAASGRTLGWNAMGWYRQAPGKERELVAAISSSTSTYYADSVKGRFTISRDNAKNTVYLQMNSLKPEDTAVYYCAALYWGQGTQVTVSS
- polyreactivity (PSR sort gate): low polyreactivity

Sequence: QVQLVESGGGLVQAGGSLRLSCAASGITFGGNAMGWYRQAPGKERELVAAISRRGGSTYYADSVKGRFTISRDNAKNTVYLQMNSLKPEDTAVYYCAAYDPVNSPGYDYWGQGTQVTVSS
- polyreactivity (PSR sort gate): high polyreactivity

Sequence: QVQLVESGGGLVQAGGSLRLSCAASGSIFSYYAMGWYRQAPGKERELVAAITGGGTTNYADSVKGRFTISRDNAKNTDYLQMNSLKPEDTAVYYCAADEPDVFAPGLYYWGQGTQVTLSS
- polyreactivity (PSR sort gate): low polyreactivity

Sequence: QVQLVESGGGLVQAGGSLRLSCAASGFTFRRYAMGWYRQAPGKERELVARISFNGGSTFYADSVKGRFTISRDNAKNTVYLQMNSLKPEDTAVYYCAAVFGGRSLSRTYGYDYWGQGTQVTVSS
- polyreactivity (PSR sort gate): high polyreactivity

Sequence: QVQLVESGGGLVQAGGSLRLICAASGSTFIKYTMGWYRPAPGKERELVAAISRIGGSTYYADSVKGRFTISRDNAKNTVYLQMNSLKPEDTAVYYCAAPYPIGHDWGQGTQVTVSS
- polyreactivity (PSR sort gate): low polyreactivity

Sequence: QVQLVESGGGLVQAGGSLRLSCAASGRTIHYYAMGRSRQAPGKERELVAAITRGGNTYYADSVKGRFTISRDNAKNTVYLQMNSLKPEDTAVYYCAKDNHFEAYRYDYWGQGTQVTVSS
- polyreactivity (PSR sort gate): high polyreactivity

Sequence: QVQLVESGGGLFQAGGSLRLSCAASGSTFYIYAMGWYRQAPGKEREFFAAIDFSGSSTYADSEKGRFTISRDNAKNTVYVQMNSLKPEDTAVYYCAAYQIYQYDGPYDYWGQGTQVTVSS
- polyreactivity (PSR sort gate): low polyreactivity

Sequence: QVQLVESGGGLVQAGGSLRLTCAASGSIFGTYAMGWYRQAPGKERQLVAAISWSDGSTYYADSVKGRFTISRDTAKNTFYLQMNSRKPEDTAVEYCAKVYRSIGPNVSRYGLSYYDWGHGTQVTVSS
- polyreactivity (PSR sort gate): low polyreactivity

Sequence: QVQLVESGGGLVQAGGSLRLSCAASGFTLLPYAMGWYRQAPGKERELVAAISRRGVSTYYADSVKGRFTISRDNAKNTVYLQMNSLKPEDTAVYYCATRYFTGYGLRPQFYYWGQGSQVTVSS
- polyreactivity (PSR sort gate): high polyreactivity

Sequence: QVQLVESGPGLVQAGGSLRLSCAASGSTFAPYALGWYRQAPGIEMELVAAIRSSGGSTYYADSVKGGFTISRDNAKNTVYLQMNSLKPEDTAVYYCADDYYTSADYVDYYYWGQGTQVTVSS
- polyreactivity (PSR sort gate): low polyreactivity

Sequence: QVQLVESVGGLVQAGGSLRLSCAASGSTFALNAMGWYRQAPGKERELVAAISYSGGSTYYADSVKGRFTISRDNAKNTVYLQINSLKPDDTAVYYCNAEVYFSGWVLYYYWGQGTQVTVSS
- polyreactivity (PSR sort gate): high polyreactivity

Sequence: QVQLVESGRGLVQAGGSLRLSCAASGRIFSIYAMGWYRQAPGKERELVAAITRGGRTNYADSVKGRFTISRDNAKNTVYLQMNSLKPEDTAVYYCAARRIDGVVKPYDYWGQGTQVTVSS
- polyreactivity (PSR sort gate): low polyreactivity

Sequence: QVQLVESGGGLVQAGGSLRLSCAASGSTFYNYAMGWYRQAPGKERELVASITWNGGSTYYADSVKGRFTISRDNAKNTVYLQMNSLKPEDTAVYYCAADWTWTYPYDYWGQGTQVTVSS
- polyreactivity (PSR sort gate): low polyreactivity

Sequence: QVQLVESGGGLVQAGGSLRLSCAASGFTFRYYAMGWYRQAPGKERELVAAISKSGGSTYYADSVKGRFTISRDNAKNTVYLQMNSLKPEDTAVYYCAARNWFSYYQIMDYWGQGTQVTVSS
- polyreactivity (PSR sort gate): high polyreactivity

Sequence: QVQLVESGGGLVQAGGSLRLSCAASGSTFYNYAMGWSRQAPGKERELVASITWNGGSTYYADSVKGRFTISRDNAKNTVYLQMNSLKPEDTAVYYCAADWTWTYPYDYWGQGTQVTVSS
- polyreactivity (PSR sort gate): low polyreactivity

Sequence: QVQLVESGGGLVQAGGSLRLSCAASGSTFGWYTMGWYRQAPGKERELVAAMTSRGTRTSYADSVKGRFTISRDNAKNTVYLQMNSLKPEDTAVYYCAARVFRGLGEYYWGQGTQVTVSS
- polyreactivity (PSR sort gate): high polyreactivity

Sequence: QVQLVESGGGLVQAGGSIRLSCAASGRIFHPYAMGWYRQAPGKERELVATISWSGGSTTYADSVKGRFTISRDNAKNTVYLQMNSLKPEDTAVYYCNADYWWSYVRFDYWGQGTQVTVSS
- polyreactivity (PSR sort gate): low polyreactivity

Sequence: QVQLVESCVGLVQAGGSLRLSCAASRSTFDSYAMGWYRQAPGNEREMVASITSRGGRTYYADSVKGRFSISRDNAMNTVYLEMNSLKPEDTAVYYCNAYRRKYYYYQRHGFWGQGTQVTVSS
- polyreactivity (PSR sort gate): high polyreactivity

Sequence: QVQLVESRGGIVQAGGSLRLSCAASGFTFYFYAKGWYRQAPGKERELVAGISRGSRTNYADSVKGRFTISRDNAKNTVYLQMNSLKPEDTAVYYCAAEVSYWGLGTQVTVSS
- polyreactivity (PSR sort gate): low polyreactivity

Sequence: QVQLVESGGGLVQEGGSLRLSCAASGFTLHVYAMGWYRQAPGKERELVAAISTGGNTNYADSVKGRFTISRDNAKNTVYLQMNSLKPEDTAVYYCNARYTSRRSRRPYYYWGQGTQVTVSS
- polyreactivity (PSR sort gate): high polyreactivity

Sequence: QVQLVDSGGGLGQAGGSLRLSCAASGSIFTTNAMGCYRHAPGKERELVAASSSRGGSTYYADSVKGRFTISRDNAKNTVYLQMNSLKPEDTAVYYCAARYRWPIPGTNYEYWGQGTQVTVSS
- polyreactivity (PSR sort gate): low polyreactivity
